# Target: C9 (human, UniProt P02748)
# Assay: other (MSD ECL)
# Chain of C9 (P02748 22-559): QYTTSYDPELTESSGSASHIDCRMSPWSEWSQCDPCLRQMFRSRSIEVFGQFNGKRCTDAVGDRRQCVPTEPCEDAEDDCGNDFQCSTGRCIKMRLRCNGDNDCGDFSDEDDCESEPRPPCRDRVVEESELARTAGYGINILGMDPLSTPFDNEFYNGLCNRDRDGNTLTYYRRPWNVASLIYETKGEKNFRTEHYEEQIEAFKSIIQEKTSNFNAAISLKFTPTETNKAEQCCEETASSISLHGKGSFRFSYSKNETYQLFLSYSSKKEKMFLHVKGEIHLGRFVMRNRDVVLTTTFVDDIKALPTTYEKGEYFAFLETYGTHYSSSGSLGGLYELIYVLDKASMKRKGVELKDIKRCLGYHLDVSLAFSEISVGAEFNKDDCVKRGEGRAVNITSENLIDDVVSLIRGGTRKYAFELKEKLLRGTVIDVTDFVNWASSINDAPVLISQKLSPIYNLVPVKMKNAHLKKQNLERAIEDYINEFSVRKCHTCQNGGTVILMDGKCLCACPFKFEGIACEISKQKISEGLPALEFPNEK
row,Binder,Kd [nM]
1,"sCD59 wild-type, in-house purified (protein) MGIQGGSVLFGLLLVLAVFCHSGHSLQCYNCPNPTADCKTAVNCSSDFDACLITKAGLQVYNKCWKFEHCNFNDVTTRLRENELTYYCCKKDLCNFNEQLEN",38.6
2,Vector KRE sCD59-6xHis wild-type (protein) MGIQGGSVLFGLLLVLAVFCHSGHSLQCYNCPNPTADCKTAVNCSSDFDACLITKAGLQVYNKCWKFEHCNFNDVTTRLRENELTYYCCKKDLCNFNEQLENHHHHHH,34.3
3,"Vector MTE sCD59 S20G,T51G-6xHis (protein) MGIQGGSVLFGLLLVLAVFCHSGHSLQCYNCPNPTADCKTAVNCGSDFDACLITKAGLQVYNKCWKFEHCNFNDVGTRLRENELTYYCCKKDLCNFNEQLENHHHHHH",28.9
4,Vector KRM vsCD59 K38R-6xHis (protein) MGIQGGSVLFGLLLVLAVFCHSGHSLQCYNCPNPTADCKTAVNCSSDFDACLITKAGLQVYNRCWKFEHCNFNDVTTRLRENELTYYCCKKDLCNFNEQLENHHHHHH,39
5,Vector KRG vsCD59 N18Q-6xHis (protein) MGIQGGSVLFGLLLVLAVFCHSGHSLQCYNCPNPTADCKTAVQCSSDFDACLITKAGLQVYNKCWKFEHCNFNDVTTRLRENELTYYCCKKDLCNFNEQLENHHHHHH,16
6,Vector MTA sCD59 S20G-6xHis (protein) MGIQGGSVLFGLLLVLAVFCHSGHSLQCYNCPNPTADCKTAVNCGSDFDACLITKAGLQVYNKCWKFEHCNFNDVTTRLRENELTYYCCKKDLCNFNEQLENHHHHHH,46.1
7,Vector MTC sCD59 T51G-6xHis (protein) MGIQGGSVLFGLLLVLAVFCHSGHSLQCYNCPNPTADCKTAVNCSSDFDACLITKAGLQVYNKCWKFEHCNFNDVGTRLRENELTYYCCKKDLCNFNEQLENHHHHHH,23.7
8,"sCD59 (His)10 wild-type, commercial (protein) LQCYNCPNPTADCKTAVNCSSDFDACLITKAGLQVYNKCWKFEHCNFNDVTTRLRENELTYYCCKKDLCNFNEQLEN",33.1

# Reference: patent US20260297165 (published 2026)
